This note sets out measurements from patent US20240025992A1 (Janssen / Centocor, published 2024).

First the molecules themselves.
T1: recombinant human DLL3 (Example 9, construct not named) (human, UniProt Q9NYJ7 27-492, limits assumed)
T1 construct: also called DLL3 antigen
T1 sequence: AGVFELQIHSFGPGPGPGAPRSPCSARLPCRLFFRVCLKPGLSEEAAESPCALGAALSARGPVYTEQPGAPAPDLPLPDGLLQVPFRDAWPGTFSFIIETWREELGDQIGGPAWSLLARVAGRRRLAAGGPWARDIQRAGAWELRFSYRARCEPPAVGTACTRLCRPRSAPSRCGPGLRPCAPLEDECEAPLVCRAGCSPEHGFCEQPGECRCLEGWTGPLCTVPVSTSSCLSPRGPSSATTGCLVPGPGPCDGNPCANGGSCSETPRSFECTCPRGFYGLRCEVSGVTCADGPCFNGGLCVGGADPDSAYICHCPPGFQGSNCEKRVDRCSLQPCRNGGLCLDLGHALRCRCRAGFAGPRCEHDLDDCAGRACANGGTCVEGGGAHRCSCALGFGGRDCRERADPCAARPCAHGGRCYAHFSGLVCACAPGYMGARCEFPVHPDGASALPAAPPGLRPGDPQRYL

T2: DL3W33, Recombinant Human DLL1 ECD (Ser22-Gly540), -DI-C-6xHis (human, UniProt O00548 22-540)
T2 construct: also called huDLL1; TPP000049465
T2 sequence: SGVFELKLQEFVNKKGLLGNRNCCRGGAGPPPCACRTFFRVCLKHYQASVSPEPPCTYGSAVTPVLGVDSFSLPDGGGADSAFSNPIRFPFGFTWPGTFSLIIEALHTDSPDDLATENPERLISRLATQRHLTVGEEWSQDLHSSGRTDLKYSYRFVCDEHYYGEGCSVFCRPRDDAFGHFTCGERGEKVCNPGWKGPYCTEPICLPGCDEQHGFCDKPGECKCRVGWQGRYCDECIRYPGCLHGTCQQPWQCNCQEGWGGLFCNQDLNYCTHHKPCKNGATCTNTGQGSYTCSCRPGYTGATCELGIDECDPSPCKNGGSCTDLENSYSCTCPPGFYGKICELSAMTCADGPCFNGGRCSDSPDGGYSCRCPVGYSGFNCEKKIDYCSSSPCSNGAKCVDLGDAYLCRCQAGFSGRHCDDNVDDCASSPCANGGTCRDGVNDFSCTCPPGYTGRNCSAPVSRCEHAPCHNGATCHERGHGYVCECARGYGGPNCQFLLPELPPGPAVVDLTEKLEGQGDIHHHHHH

T3: CD3W147, homodimeric CD3εγ-Fc (biotinylated)
T3 construct: also called recombinant CD3; biotinylated CD3W147
T3 chain: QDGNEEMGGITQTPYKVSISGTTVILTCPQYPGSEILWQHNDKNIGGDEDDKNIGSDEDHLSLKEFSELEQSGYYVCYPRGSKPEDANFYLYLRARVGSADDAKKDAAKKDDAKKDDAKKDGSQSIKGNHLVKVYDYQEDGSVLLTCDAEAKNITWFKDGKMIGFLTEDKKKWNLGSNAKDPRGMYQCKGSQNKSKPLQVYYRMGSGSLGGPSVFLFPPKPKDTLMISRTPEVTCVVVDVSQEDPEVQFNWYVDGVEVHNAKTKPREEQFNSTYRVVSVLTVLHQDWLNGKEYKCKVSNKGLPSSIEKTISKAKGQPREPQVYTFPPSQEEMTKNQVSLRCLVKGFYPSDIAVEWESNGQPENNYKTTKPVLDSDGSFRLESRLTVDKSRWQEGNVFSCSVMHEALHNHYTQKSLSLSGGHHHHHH

B1: DL3W34, human DLL4 ECD (Ser27-Pro524), C-10xHis (ligand)
chain: SGVFQLQLQEFINERGVLASGRPCEPGCRTFFRVCLKHFQAVVSPGPCTFGTVSTPVLGTNSFAVRDDSSGGGRNPLQLPFNFTWPGTFSLIIEAWHAPGDDLRPEALPPDALISKIAIQGSLAVGQNWLLDEQTSTLTRLRYSYRVICSDNYYGDNCSRLCKKRNDHFGHYVCQPDGNLSCLPGWTGEYCQQPICLSGCHEQNGYCSKPAECLCRPGWQGRLCNECIPHNGCRHGTCSTPWQCTCDEGWGGLFCDQDLNYCTHHSPCKNGATCSNSGQRSYTCTCRPGYTGVDCELELSECDSNPCRNGGSCKDQEDGYHCLCPPGYYGLHCEHSTLSCADSPCFNGGSCRERNQGANYACECPPNFTGSNCEKKVDRCTSNPCANGGQCLNRGPSRMCRCRPGFTGTYCELHVSDCARNPCAHGGTCHDLENGLMCTCPAGFSGRRCEVRTSIDACASSPCFNRATCYTDLSTDTFVCNCPYGFVGSRCEFPVGLPHHHHHHHHHH
notes: also called huDLL4; TPP0000494661
B2: D3C3B80 (bispecific antibody, human IgG1, lambda, L234A L235A)
scFv: DIQMTQSPSSLSASVGDRVTITCRASQGISNYLAWFQQKPGKAPKSLIYAASSLQSGVPSKFSGSGSGTDFTLTISSLQPEDFATYYCQQYNSYPYTFGQGTKLEIKGGSEGKSSGSGSESKSTGGSQVQLVQSGAEVKKPGASVKVSCKASGQTFTNYYIHWVRQAPGQGLEWMGIINPSGGSTSYAQKLQGRMTMTRDTSTSTVYMELSSLRSEDTAVYFCARQGPFIGDAFDIWGQGTTVTVSSEPKSSDKTHTCPPCPAPEAAGGPSVFLFPPKPKDTLMISRTPEVTCVVVSVSHEDPEVKFNWYVDGVEVHNAKTKPREEQYNSTYRVVSVLTVLHQDWLNGKEYKCKVSNKALPAPIEKTISKAKGQPREPQVYVLPPSREEMTKNQVSLLCLVKGFYPSDIAVEWESNGQPENNYLTWPPVLDSDGSFFLYSKLTVDKSRWQQGNVFSCSVMHEALHNHYTQKSLSLSPGK
heavy: QVQLQQSGPRLVRPSQTLSLTCAISGDSVFNNNAAWSWIRQSPSRGLEWLGRTYYRSKWLYDYAVSVKSRITVNPDTSRNQFTLQLNSVTPEDTALYYCARGYSSSFDYWGQGTLVTVSSASTKGPSVFPLAPSSKSTSGGTAALGCLVKDYFPEPVTVSWNSGALTSGVHTFPAVLQSSGLYSLSSVVTVPSSSLGTQTYICNVNHKPSNTKVDKKVEPKSCDKTHTCPPCPAPEAAGGPSVFLFPPKPKDTLMISRTPEVTCVVVSVSHEDPEVKFNWYVDGVEVHNAKTKPREEQYNSTYRVVSVLTVLHQDWLNGKEYKCKVSNKALPAPIEKTISKAKGQPREPQVYVYPPSREEMTKNQVSLTCLVKGFYPSDIAVEWESNGQPENNYKTTPPVLDSDGSFALVSKLTVDKSRWQQGNVFSCSVMHEALHNHYTQKSLSLSPGK
light: QSALTQPASVSGSPGQSITISCTGTSSNIGTYKFVSWYQQHPDKAPKVLLYEVSKRPSGVSSRFSGSKSGNTASLTISGLQAEDQADYHCVSYAGSGTLLFGGGTKLTVLGQPKAAPSVTLFPPSSEELQANKATLVCLISDFYPGAVTVAWKADSSPVKAGVETTTPSKQSNNKYAASSYLSLTPEQWKSHRSYSCQVTHEGSTVEKTVAPTECS
notes: DLL3 arm: DL3B279 variant LH-scFv-Fc (ZW); CD3 arm: CD3B376-K477-Fab-Fc; also called CD3B376-Fab
B3: DL3W35, extracellular domain of human DLL3 linked to a C-terminal 6xHis-Tag and a linker (ligand)
chain: AGVFELQIHSFGPGPGPGAPRSPCSARLPCRLFFRVCLKPGLSEEAAESPCALGAALSARGPVYTEQPGAPAPDLPLPDGLLQVPFRDAWPGTFSFIIETWREELGDQIGGPAWSLLARVAGRRRLAAGGPWARDIQRAGAWELRFSYRARCEPPAVGTACTRLCRPRSAPSRCGPGLRPCAPLEDECEAPLVCRAGCSPEHGFCEQPGECRCLEGWTGPLCTVPVSTSSCLSPRGPSSATTGCLVPGPGPCDGNPCANGGSCSETPRSFECTCPRGFYGLRCEVSGVTCADGPCFNGGLCVGGADPDSAYICHCPPGFQGSNCEKRVDRCSLQPCRNGGLCLDLGHALRCRCRAGFAGPRCEHDLDDCAGRACANGGTCVEGGGAHRCSCALGFGGRDCRERADPCAARPCAHGGRCYAHFSGLVCACAPGYMGARCEFPVHPDGASALPAAHPGGGSGGGSGGGSHHHHHH
notes: also called human DLL3 ECD; huDLL3
B4: DL3B575 (Fc fusion)
scFv: DIVMTQSPLSSPVTLGQPASISCRSSQSLVHSDGNTYLNWLQQRPGQPPRLLIYQISNPFSGVPDRFSGSGAGTDFTLKISRVEAEDVGVYYCMQATQFPHTFGPGTKVEIKGGSEGKSSGSGSESKSTGGSQVQLVQSGAEVKKPGSSVKVSCKASGGTLSSYVISWVRQAPGQGLEWMGGIIPIFGTANYAQKFQDRVTITADKSTNTAYMELTSLTSEDTAVYYCARDPFSDLWGRGTMVTVSS
notes: also called DL3B461 scFv-Fc; not shown: wild-type IgG1 Fc domain
B5: CD3W245-HL-E.c. (scFv)
scFv: EVQLVESGGGLVKPGGSLRLSCAASGFTFSRYNMNWVRQAPGKGLEWVSSISTSSNYIYYADSVKGRFTFSRDNAKNSLDLQMSGLRAEDTAIYYCTRGWGPFDYWGQGTLVTVSSGTEGKSSGSGSESKSTDIQMTQSPSSLSASVGDRVTITCRARQSIGTAIHWYQQKPGKAPKLLIKYASESISGVPSRFSGSGSGTDFTLTISSLQPEDFATYYCQQSGSWPYTFGQGTKLEIKGPGGQHHHHHHGAYPYDVPDYAS
notes: Tested as E. coli supernatant; also called CD3W245 scFv-HL; CD3W245 scFv HL expressed in E. coli

The target of assay [1] is T4, DL3B574.
T4 construct: also called DL3B450 scFv-Fc; not shown: wild-type IgG1 Fc domain
The experiment in a line: SPR (ProteOn), antibody captured by anti-Fc; DLL4 at 100 nM and 1000 nM.

Assay [2] deals with T1, recombinant human DLL3 (Example 9, …). Kind of assay: SPR (Biacore T200), antibody captured by goat anti-Fc on a C1 chip, DLL3 titrated.
Experimental: The binding affinity of anti-DLL3×CD3 antibodies to the recombinant human DLL3 was determined by surface plasmon resonance (SPR) using a Biacore T200 instrument. […] The association was monitored for 2 minutes and the and dissociation for 5 or 60 minutes, using a flow rate of 100 μL/min. Raw binding data was referenced by subtracting the analyte binding signals from blanks and analyzed using a 1:1 Langmuir binding model using the Biacore Insight evaluation software to obtain the kinetics which were used to calculate the binding affinity.
Assay [3] has as its target T5, human CD3 (CD3 epsilon as part of the T cell receptor complex) on cells (human, UniProt P07766 23-207).
T5 construct: also called CD3 on Jurkat cells; CD3 on human pan T cells
Kind of assay: flow cytometry on human T cells (sheet title 'T cells', GEO Mean against concentration; assay as told in p-1138). (In general: In flow cytometry, cells or beads pass a laser one at a time.)
Experimental: Human Pan T Cells (Biological Specialty Corporation, Colmar, PA) were thawed and transferred to a 15 mL conical with DPBS (Dulbecco's Phosphate Saline Buffer). The cells were centrifuged 1300 rpm for 5 minutes. DPBS was aspirated and the cells were re-suspended in DPBS. The cells were counted using the Vi-cell XR cell viability analyzer and were plated at 100K/well in 100 μL DPBS. The plate was centrifuged 1200 rpm for 3 minutes and washed 2× with DPBS. The cells were stained with Violet Live/Dead stain (Thermo-Fisher) and incubated at RT in the dark for 25 min. The cells were centrifuged and washed 2× with FACS staining buffer (BD Pharmingen). Test antibodies were diluted to a final starting concentration of 100 nM in FACS staining buffer and 3-fold serial dilutions were prepared from the starting concentration for a total of 10 dilution points. The serially diluted test antibodies (100 uL/well) were added to the cells and incubated for 30 min at 37°. […] Cells were washed 2× with FACS staining buffer and re-suspended in 100 uL FACS Buffer. Cells were run on BD Celesta using FACS Diva software and analyzed using FlowJo software.

The target of assay [4] is T4, DL3B574. Kind of assay: SPR (ProteOn), antibody captured by anti-Fc, DLL3 (DL3W35) titrated.
Experimental: (§1) The association and dissociation were monitored for 5 and 30 minutes, respectively, using a flow rate of 50 μL/min. Kinetic information (on-rate and off-rate constants) were extracted by fitting sensorgrams to the 1:1 Langmuir binding model. Binding affinity (KD) are reported as the ratio of rate constants (koff/kon).
Assay [5] addresses T6, DL3W36, human DLL3 EGF6 domain+C-term ECD sequence, HSA Fusion and C-term 6 His tag (human).
T6 construct: Fusion with the C34S variant of human serum albumin, plus 6xHis; also called EGF-6 and C-terminal fusion domain; EGF6 + Cterm
Kind of assay: MSD plate binding assay on coated DLL3 domain-HSA fusions.
Experimental: The plates were washed with PBS with 0.1% Tween and then blocked with Starting block solution for 30 minutes. […] Antigen bound antibody was detected with sulfo-tagged anti-human antibody (Meso Scale Discovery, R32AJ) for 60 minutes at ambient temperature followed by another PBS wash. Signal acquisition was done in the presence of 1× MSD read buffer T (MSD, Cat #R92TC-1) on the MSD Sector 600 imager with appropriate plate settings. Data was analyzed for the highest binding signal per domain indicating the preferential domain binding.

The target in assay [6] is B3. The experiment in a line: SPR (ProteOn), antibody captured by anti-Fc, DLL3 (DL3W35) titrated.
Experimental: as §1
The target in assay [7] is T2, DL3W33, Recombinant Human DLL1 ECD …. The experiment in a line: SPR (ProteOn), antibody captured by anti-Fc; DLL1 at 100 nM and 1000 nM.
Experimental: as §1
The target in assay [8] is B1. The experiment in a line: SPR (ProteOn), antibody captured by anti-Fc; DLL4 at 100 nM and 1000 nM.
Experimental: as §1
The target in assay [9] is T3, CD3W147, homodimeric CD3εγ-Fc. Kind of assay: ELISA, biotinylated CD3W147 immobilized, scFv in E. coli supernatant. (An ELISA detects its analyte on a solid surface through an enzyme-linked reagent.)
Experimental: Protein expression was induced by addition of 1 mM IPTG and cultures were grown overnight. After expression, cells were pelleted by centrifugation at 2,200×g for 5 min and supernatants were collected and tested directly for binding to biotinylated CD3W147 by ELISA.
Biotinylated CD3W147 was immobilized on the plate in concentrations ranging from 0.039 μg/mL to 2.5 μg/mL in 2-fold dilutions followed by incubation at room temperature for 45 min. Bound scFv was detected using chicken anti-HA-horseradish peroxidase and then detected with chemiluminescence substrate.

T6 sequence (chain, as listed by the source limits assumed): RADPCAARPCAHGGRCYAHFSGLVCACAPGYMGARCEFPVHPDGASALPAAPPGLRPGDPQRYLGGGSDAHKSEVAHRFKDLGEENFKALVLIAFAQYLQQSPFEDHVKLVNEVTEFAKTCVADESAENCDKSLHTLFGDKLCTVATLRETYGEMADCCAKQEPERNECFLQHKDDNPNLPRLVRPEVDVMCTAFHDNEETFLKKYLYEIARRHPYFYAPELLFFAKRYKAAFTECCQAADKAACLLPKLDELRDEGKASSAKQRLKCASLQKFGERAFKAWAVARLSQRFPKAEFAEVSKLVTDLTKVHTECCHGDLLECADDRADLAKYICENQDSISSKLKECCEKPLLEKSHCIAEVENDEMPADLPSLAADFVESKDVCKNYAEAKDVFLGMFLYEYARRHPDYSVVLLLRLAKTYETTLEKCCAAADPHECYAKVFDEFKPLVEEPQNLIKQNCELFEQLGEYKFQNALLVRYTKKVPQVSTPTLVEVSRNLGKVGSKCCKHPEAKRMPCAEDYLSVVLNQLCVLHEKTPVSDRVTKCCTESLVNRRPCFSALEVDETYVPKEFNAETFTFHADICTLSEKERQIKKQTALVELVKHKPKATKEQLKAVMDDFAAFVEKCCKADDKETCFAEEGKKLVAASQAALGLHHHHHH
T5 sequence (P07766 23-207 limits assumed, one chain of several): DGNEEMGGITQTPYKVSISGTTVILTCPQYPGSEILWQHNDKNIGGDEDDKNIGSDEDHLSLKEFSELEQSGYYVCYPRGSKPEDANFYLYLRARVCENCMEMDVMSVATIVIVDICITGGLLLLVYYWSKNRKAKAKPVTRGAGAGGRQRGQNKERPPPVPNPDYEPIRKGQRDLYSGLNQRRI

As for B1, the binding result with DL3B574 [1] was “no binding (tested: 1000 nM)”. Regarding B2, the Kd (in general, the equilibrium constant for the complex coming apart) in [2] turned out to be 0.033 nM. For the same molecule, in [3], the binding result was “binds”.

B3 yielded a Kd in the assay with DL3B574 [4] of 2.37 nM.

For B4, the binding result was “binds” in [5], “no binding (tested: 1000 nM)” in assay [7] and “no binding (tested: 1000 nM)” in assay [8]. The molecule also came in with a dissociation constant (Kd) in assay [6] of 0.31 nM.

Take B5: the binding result in assay [9] is on record as “binds”.
